Results published in US20180016312A1 (Pieris, published 2018).

Key:
[1] = target: T1, hNGAL lipocalin mutein SEQ ID NO: 8; experiment: solution competition ELISA; 0.1 nM SEQ ID NO: 8 with varied soluble ligand, free mutein captured on immobilised hAng-2
T1 construct: Mutein of mature hNGAL; Biotinylated with NHS-PEG4-Biotin for the SPR assay
T1 chain: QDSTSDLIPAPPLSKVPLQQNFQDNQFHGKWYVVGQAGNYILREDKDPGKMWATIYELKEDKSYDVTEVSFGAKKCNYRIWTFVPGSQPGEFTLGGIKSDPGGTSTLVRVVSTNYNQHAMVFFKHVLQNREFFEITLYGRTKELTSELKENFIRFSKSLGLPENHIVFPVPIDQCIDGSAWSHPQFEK
Procedure: (§1) In the following detailed experimental protocol, incubation and washing steps were performed as described above in the competition ELISA protocol (see Example 5).
(§2) The residual supernatants were discarded and 20 μl HRP-labeled anti-lipocalin-mutein antibody was added at a predetermined optimal concentration in PBS-T/BSA and incubated for 1 h at RT. […] After washing, 20 μl fluorogenic HRP substrate (Quantablue, Pierce) was added to each well, and the reaction was allowed to proceed for 60 minutes. The fluorescence intensity of every well on the plate was read using a Genios Plus Microplate reader (Tecan).

[2] = target: T2, hNGAL lipocalin mutein SEQ ID NO: 7; experiment: solution competition ELISA; 0.1 nM SEQ ID NO: 7 with varied soluble ligand, free mutein captured on immobilised hAng-2
T2 construct: Mutein of mature hNGAL; Biotinylated with NHS-PEG4-Biotin for the SPR assay
T2 chain: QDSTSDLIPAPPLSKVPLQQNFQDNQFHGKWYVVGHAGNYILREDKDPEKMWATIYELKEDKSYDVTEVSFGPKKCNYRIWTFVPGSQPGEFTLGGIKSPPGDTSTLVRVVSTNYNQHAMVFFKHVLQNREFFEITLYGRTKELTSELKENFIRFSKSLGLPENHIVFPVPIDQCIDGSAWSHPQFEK
Procedure: as §1, §2

[3] = target: T3, hNGAL lipocalin mutein SEQ ID NO: 9; experiment: solution competition ELISA; 0.1 nM SEQ ID NO: 9 with varied soluble ligand, free mutein captured on immobilised hAng-2
T3 construct: Mutein of mature hNGAL; Biotinylated with NHS-PEG4-Biotin for the SPR assay
T3 chain: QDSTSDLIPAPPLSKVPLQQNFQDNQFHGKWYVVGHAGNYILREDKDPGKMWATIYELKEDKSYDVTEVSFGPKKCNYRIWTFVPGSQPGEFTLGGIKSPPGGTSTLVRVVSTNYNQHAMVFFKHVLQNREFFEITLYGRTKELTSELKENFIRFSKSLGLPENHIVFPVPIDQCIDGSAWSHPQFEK
Procedure: as §1, §2

[4] = target: T4, hNGAL lipocalin mutein SEQ ID NO: 11; experiment: solution competition ELISA; 0.1 nM SEQ ID NO: 11 with varied soluble ligand, free mutein captured on immobilised hAng-2
T4 construct: Mutein of mature hNGAL; Biotinylated with NHS-PEG4-Biotin for the SPR assay
T4 chain: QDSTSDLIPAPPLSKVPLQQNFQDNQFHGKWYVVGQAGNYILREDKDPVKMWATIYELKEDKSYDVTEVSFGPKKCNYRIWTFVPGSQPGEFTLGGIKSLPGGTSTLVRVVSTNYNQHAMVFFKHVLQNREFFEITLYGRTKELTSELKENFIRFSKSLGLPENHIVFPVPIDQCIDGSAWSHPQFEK
Procedure: as §1, §2

[5] = target: benchmark antibody 1 (SEQ ID NOs: 17/18); experiment: solution competition ELISA; 0.1 nM SEQ ID NO: 17/18 with varied soluble ligand, free antibody captured on immobilised hAng-2
[6] = target: T5, hNGAL lipocalin mutein SEQ ID NO: 1; experiment: solution competition ELISA; 0.1 nM SEQ ID NO: 1 with varied soluble ligand, free mutein captured on immobilised hAng-2
T5 construct: Mutein of mature hNGAL
T5 chain: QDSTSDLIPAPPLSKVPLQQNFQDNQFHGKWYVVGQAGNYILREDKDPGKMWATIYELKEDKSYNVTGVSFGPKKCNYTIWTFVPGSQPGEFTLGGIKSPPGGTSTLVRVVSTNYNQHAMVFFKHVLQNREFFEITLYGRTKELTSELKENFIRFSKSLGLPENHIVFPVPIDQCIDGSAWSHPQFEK
Procedure: as §1, §2

[7] = target: T6, hNGAL lipocalin mutein SEQ ID NO: 3; experiment: solution competition ELISA; 0.1 nM SEQ ID NO: 3 with varied soluble ligand, free mutein captured on immobilised hAng-2
T6 construct: Mutein of mature hNGAL
T6 chain: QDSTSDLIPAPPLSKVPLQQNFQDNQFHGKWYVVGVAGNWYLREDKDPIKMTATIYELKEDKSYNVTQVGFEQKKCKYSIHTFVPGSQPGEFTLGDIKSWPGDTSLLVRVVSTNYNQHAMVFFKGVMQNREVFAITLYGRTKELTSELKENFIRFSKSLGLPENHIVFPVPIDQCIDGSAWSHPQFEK
Procedure: as §1, §2

B1: human angiopoietin-1 (ligand, UniProt Q15389 20-498, looked up)
chain: SNQRRSPENSGRRYNRIQHGQCAYTFILPEHDGNCRESTTDQYNTNALQRDAPHVEPDFSSQKLQHLEHVMENYTQWLQKLENYIVENMKSEMAQIQQNAVQNHTATMLEIGTSLLSQTAEQTRKLTDVETQVLNQTSRLEIQLLENSLSTYKLEKQLLQQTNEILKIHEKNSLLEHKILEMEGKHKEELDTLKEEKENLQGLVTRQTYIIQELEKQLNRATTNNSVLQKQQLELMDTVHNLVNLCTKEGVLLKGGKREEEKPFRDCADVYQAGFNKSGIYTIYINNMPEPKKVFCNMDVNGGGWTVIQHREDGSLDFQRGWKEYKMGFGNPSGEYWLGNEFIFAITSQRQYMLRIELMDWEGNRAYSQYDRFHIGNEKQNYRLYLKGHTGTAGKQSSLILHGADFSTKDADNDNCMCKCALMLTGGWWFDACGPSNLNGMFYTAGQNHGKLNGIKWHYFKGPSYSLRSTTMMIRPLDF
notes: Bought recombinant protein; also called human Ang-1; hAng-1
IC50 [1]: 9.3 nM | IC50 [2]: 0.47 nM | IC50 [3]: 1.9 nM | IC50 [4]: 0.89 nM | IC50 [5]: 26 nM

B2: human angiopoietin-2 (ligand, UniProt O15123 19-496, looked up)
chain: YNNFRKSMDSIGKKQYQVQHGSCSYTFLLPEMDNCRSSSSPYVSNAVQRDAPLEYDDSVQRLQVLENIMENNTQWLMKLENYIQDNMKKEMVEIQQNAVQNQTAVMIEIGTNLLNQTAEQTRKLTDVEAQVLNQTTRLELQLLEHSLSTNKLEKQILDQTSEINKLQDKNSFLEKKVLAMEDKHIIQLQSIKEEKDQLQVLVSKQNSIIEELEKKIVTATVNNSVLQKQQHDLMETVNNLLTMMSTSNSAKDPTVAKEEQISFRDCAEVFKSGHTTNGIYTLTFPNSTEEIKAYCDMEAGGGGWTIIQRREDGSVDFQRTWKEYKVGFGNPSGEYWLGNEFVSQLTNQQRYVLKIHLKDWEGNEAYSLYEHFYLSSEELNYRIHLKGLTGTAGKISSISQPGNDFSTKDGDNDKCICKCSQMLTGGWWFDACGPSNLNGMYYPQRQNTNKFNGIKWYYWKGSGYSLKATTMMIRPADF
notes: Bought recombinant protein with a His tag (detected by anti-HIS-tag antibody); also called human Ang-2; hAng-2
IC50 [1]: 0.5 nM | IC50 [2]: 0.41 nM | IC50 [6]: 2.5 nM | IC50 [3]: 0.76 nM | IC50 [7]: 1.4 nM | IC50 [4]: 0.49 nM | IC50 [5]: 0.6 nM

B3: mouse angiopoietin-2 (ligand, UniProt O35608 19-496, looked up)
chain: YSNFRKSVDSTGRRQYQVQNGPCSYTFLLPETDSCRSSSSPYMSNAVQRDAPLDYDDSVQRLQVLENILENNTQWLMKLENYIQDNMKKEMVEIQQNVVQNQTAVMIEIGTSLLNQTAAQTRKLTDVEAQVLNQTTRLELQLLQHSISTNKLEKQILDQTSEINKLQNKNSFLEQKVLDMEGKHSEQLQSMKEQKDELQVLVSKQSSVIDELEKKLVTATVNNSLLQKQQHDLMETVNSLLTMMSSPNSKSSVAIRKEEQTTFRDCAEIFKSGLTTSGIYTLTFPNSTEEIKAYCDMDVGGGGWTVIQHREDGSVDFQRTWKEYKEGFGSPLGEYWLGNEFVSQLTGQHRYVLKIQLKDWEGNEAHSLYDHFYLAGEESNYRIHLTGLTGTAGKISSISQPGSDFSTKDSDNDKCICKCSQMLSGGWWFDACGPSNLNGQYYPQKQNTNKFNGIKWYYWKGSGYSLKATTMMIRPADF
notes: Bought recombinant protein; also called mouse Ang-2; mAng-2
IC50 [1]: 0.08 nM | IC50 [2]: 0.05 nM | IC50 [6]: 0.65 nM | IC50 [3]: 0.11 nM | IC50 [7]: 1.8 nM | IC50 [4]: 0.05 nM | IC50 [5]: 0.07 nM
